Assay results as given in the supplement of paper PMC5998384.

What was measured:
HeLa Kyoto [1] = experiment: solubility in G1/S (NP-40 vs SDS abundance) (log2 ratio); higher = more soluble; conditions: cell cycle stage: G1/S
HeLa Kyoto [2] = experiment: melting temperature (median over replicates), in situ; higher = more thermally stable
HeLa Kyoto [3] = experiment: solubility change mitosis vs G1/S (difference of NP-40 vs SDS log2 ratios) (log2 ratio difference); higher = more soluble in mitosis
HeLa Kyoto [4] = experiment: thermal stability score vs G1/S (z-score of summed log2 fold changes over temperatures); higher = more thermally stable than in G1/S
[5] = cell cycle stage: early G1 (4.5 h after nocodazole release)
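Throughout, for melting temperature (median over replicates), in situ: HeLa Kyoto cells synchronized by double thymidine or nocodazole block, proteins quantified by TMT10plex mass spectrometry, three independent biological replicates.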
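Throughout, for solubility change mitosis vs G1/S (difference of NP-40 vs SDS log2 ratios): synchronized HeLa Kyoto cells (double thymidine block for G1/S, nocodazole release for mitosis), protein amounts in NP-40 versus SDS lysates quantified by mass spectrometry, three biological replicates.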
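Throughout, for solubility in G1/S (NP-40 vs SDS abundance): HeLa Kyoto cells arrested at G1/S by double thymidine block, proteins quantified by TMT10plex mass spectrometry in mild NP-40 versus SDS extracts, three biological replicates.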
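Throughout, for thermal stability score vs G1/S (z-score of summed log2 fold changes over temperatures): synchronized HeLa Kyoto cells, proteins quantified by TMT10plex mass spectrometry, three biological replicates, mitosis taken 0.5 h after nocodazole release, G1/S directly after double thymidine block.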

Chain of PPIC (chain, as listed by the source): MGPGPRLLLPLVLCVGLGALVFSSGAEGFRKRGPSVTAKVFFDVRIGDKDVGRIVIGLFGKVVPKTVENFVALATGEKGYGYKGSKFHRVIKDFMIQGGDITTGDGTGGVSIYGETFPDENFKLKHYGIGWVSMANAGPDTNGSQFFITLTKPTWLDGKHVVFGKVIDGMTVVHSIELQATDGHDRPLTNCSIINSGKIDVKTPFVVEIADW

| Substance | solubility in G1/S (log2) (HeLa Kyoto [1]) | melting temperature (HeLa Kyoto [2]; cell cycle stage: G1/S) [°C] | melting temperature (HeLa Kyoto [2]; cell cycle stage: mitosis) [°C] | solubility change mitosis (log2) (HeLa Kyoto [3]) | thermal stability score (HeLa Kyoto [4]; [5]) | thermal stability score (HeLa Kyoto [4]; cell cycle stage: mitosis) |
| --- | --- | --- | --- | --- | --- | --- |
| MMCEVMPTISEAEGPPGGGGGHGSGSPSQPDADSHFEQLMVSMLEERDRLLDTLRETQETLALTQGKLHEVGHERDSLQRQLNTALPQEFAALTKELNVCREQLLEREEEIAELKAERNNTRLLLEHLECLVSRHERSLRMTVVKRQAQSPAGVSSEVEVLKALKSLFEHHKALDEKVRERLRVALERCSLLEEELGATHKELMILKEQNNQKKTLTDGVLDINHEQENTPSTSGKRSSDGSLSHEEDLAKVIELQEIISKQSREQSQMKERLASLSSHVTELEEDLDTARKDLIKSEEMNTKLQRDVREAMAQKEDMEERITTLEKRYLAAQREATSVHDLNDKLENEIANKDSMHRQTEDKNRQLQERLELAEQKLQQTLRKAETLPEVEAELAQRVAALSKAEERHGNIEERLRQMEAQLEEKNQELQRARQREKMNEEHNKRLSDTVDKLLSESNERLQLHLKERMAALEDKNSLLREVESAKKQLEETQHDKDQLVLNIEALRAELDHMRLRGASLHHGRPHLGSVPDFRFPMADGHTDSYSTSAVLRRPQKGRLAALRDEPSKVQTLNEQDWERAQQASVLANVAQAFESDADVSDGEDDRDTLLSSVDLLSPSGQADAHTLAMMLQEQLDAINKEIRLIQEEKENTEQRAEEIESRVGSGSLDNLGRFRSMSSIPPYPASSLASSSPPGSGRSTPRRIPHSPAREVDRLGVMTLLPPSREEVRDDKTTIKCETSPPSSPRALRLDRLHKGALHTVSHEDIRDIRNSTGSQDGPVSNPSSSNSSQDSLHKAPKKKGIKSSIGRLFGKKEKGRPGQTGKEALGQAGVSETDNSSQDALGLSKLGGQAEKNRKLQKKHELLEEARRQGLPFAQWDGPTVVVWLELWVGMPAWYVAACRANVKSGAIMSALSDTEIQREIGISNPLHRLKLRLAIQEIMSLTSPSAPPTSRTTLAYGDMNHEWIGNEWLPSLGLPQYRSYFMECLVDARMLDHLTKKDLRGQLKMVDSFHRNSFQCGIMCLRRLNYDRKELERKREESQSEIKDVLVWSNDRVIRWILSIGLKEYANNLIESGVHGALLALDETFDFSALALLLQIPTQNTQARAVLEREFNNLLVMGTDRRFDEDDDKSFRRAPSWRKKFRPKDIRGLAAGSAETLPANFRVTSSMSSPSMQPKKMQMDGNVSGTQRLDSATVRTYSC [PPFIA1] | 0.137 | 49.8 | 50.2 | -0.0196 | 1.52 | 1.91 |
| MEKTLETVPLERKKREKEQFRKLFIGGLSFETTEESLRNYYEQWGKLTDCVVMRDPASKRSRGFGFVTFSSMAEVDAAMAARPHSIDGRVVEPKRAVAREESGKPGAHVTVKKLFVGGIKEDTEEHHLRDYFEEYGKIDTIEIITDRQSGKKRGFGFVTFDDHDPVDKIVLQKYHTINGHNAEVRKALSRQEMQEVQSSRSGRGGNFGFGDSRGGGGNFGPGPGSNFRGGSDGYGSGRGFGDGYNGYGGGPGGGNFGGSPGYGGGRGGYGGGGPGYGNQGGGYGGGYDNYGGGNYGSGNYNDFGNYNQQPSNYGPMKSGNFGGSRNMGGPYGGGNYGPGGSGGSGGYGGRSRY [HNRNPA2B1] | -0.087 | 48.1 | 49 | 0.321 | 5.29 | 6.68 |
| MSSPQAPEDGQGCGDRGDPPGDLRSVLVTTVLNLEPLDEDLFRGRHYWVPAKRLFGGQIVGQALVAAAKSVSEDVHVHSLHCYFVRAGDPKLPVLYQVERTRTGSSFSVRSVKAVQHGKPIFICQASFQQAQPSPMQHQFSMPTVPPPEELLDCETLIDQYLRDPNLQKRYPLALNRIAAQEVPIEIKPVNPSPLSQLQRMEPKQMFWVRARGYIGEGDMKMHCCVAAYISDYAFLGTALLPHQWQHKVHFMVSLDHSMWFHAPFRADHWMLYECESPWAGGSRGLVHGRLWRQDGVLAVTCAQEGVIRVKPQVSESKL [ACOT8] | -0.0523 | 51.9 | 53.8 | -0.588 | 0.114 | -0.515 |
| MQVTLKTLQQQTFKIDIDPEETVKALKEKIESEKGKDAFPVAGQKLIYAGKILNDDTALKEYKIDEKNFVVVMVTKPKAVSTPAPATTQQSAPASTTAVTSSTTTTVAQAPTPVPALAPTSTPASITPASATASSEPAPASAAKQEKPAEKPAETPVATSPTATDSTSGDSSRSNLFEDATSALVTGQSYENMVTEIMSMGYEREQVIAALRASFNNPDRAVEYLLMGIPGDRESQAVVDPPQAASTGAPQSSAVAAAAATTTATTTTTSSGGHPLEFLRNQPQFQQMRQIIQQNPSLLPALLQQIGRENPQLLQQISQHQEHFIQMLNEPVQEAGGQGGGGGGGSGGIAEAGSGHMNYIQVTPQEKEAIERLKALGFPEGLVIQAYFACEKNENLAANFLLQQNFDED [RAD23B] | 0.0413 | 57 | 54.1 | 0.104 | -2.19 | -2.38 |
| MASSCAVQVKLELGHRAQVRKKPTVEGFTHDWMVFVRGPEHSNIQHFVEKVVFHLHESFPRPKRVCKDPPYKVEESGYAGFILPIEVYFKNKEEPRKVRFDYDLFLHLEGHPPVNHLRCEKLTFNNPTEDFRRKLLKAGGDPNRSIHTSSSSSSSSSSSSSSSSSSSSSSSSSSSSSSSSSSSSSSSSSSTSFSKPHKLMKEHKEKPSKDSREHKSAFKEPSRDHNKSSKESSKKPKENKPLKEEKIVPKMAFKEPKPMSKEPKPDSNLLTITSGQDKKAPSKRPPISDSEELSAKKRKKSSSEALFKSFSSAPPLILTCSADKKQIKDKSHVKMGKVKIESETSEKKKSTLPPFDDIVDPNDSDVEENISSKSDSEQPSPASSSSSSSSSFTPSQTRQQGPLRSIMKDLHSDDNEEESDEVEDNDNDSEMERPVNRGGSRSRRVSLSDGSDSESSSASSPLHHEPPPPLLKTNNNQILEVKSPIKQSKSDKQIKNGECDKAYLDELVELHRRLMTLRERHILQQIVNLIEETGHFHITNTTFDFDLCSLDKTTVRKLQSYLETSGTS [MLLT3] | -0.355 | 48.5 | 50.5 | 0.411 | -0.0552 | 0.557 |
| PPIC | 0.0897 | 53.6 | 53.4 | -0.103 | 1.01 | -0.315 |
| NUP214 | -0.301 | 50.5 | 49.8 | 0.0567 | -1.39 | -1.03 |
| MANINLKEITLIVGVVTACYWNSLFCGFVFDDVSAILDNKDLHPSTPLKTLFQNDFWGTPMSEERSHKSYRPLTVLTFRLNYLLSELKPMSYHLLNMIFHAVVSVIFLKVCKLFLDNKSSVIASLLFAVHPIHTEAVTGVVGRAELLSSIFFLAAFLSYTRSKGPDNSIIWTPIALTVFLVAVATLCKEQGITVVGICCVYEVFIAQGYTLPLLCTTAGQFLRGKGSIPFSMLQTLVKLIVLMFSTLLLVVIRVQVIQSQLPVFTRFDNPAAVSPTPTRQLTFNYLLPVNAWLLLNPSELCCDWTMGTIPLIESLLDIRNLATFTFFCFLGMLGVFSIRYSGDSSKTVLMALCLMALPFIPASNLFFPVGFVVAERVLYVPSMGFCILVAHGWQKISTKSVFKKLSWICLSMVILTHSLKTFHRNWDWESEYTLFMSALKVNKNNAKLWNNVGHALENEKNFERALKYFLQATHVQPDDIGAHMNVGRTYKNLNRTKEAEESYMMAKSLMPQIIPGKKYAARIAPNHLNVYINLANLIRANESRLEEADQLYRQAISMRPDFKQAYISRGELLLKMNKPLKAKEAYLKALELDRNNADLWYNLAIVHIELKEPNEALKKNFNRALELNPKHKLALFNSAIVMQESGEVKLRPEARKRLLSYINEEPLDANGYFNLGMLAMDDKKDNEAEIWMKKAIKLQADFRSALFNLALLYSQTAKELKALPILEELLRYYPDHIKGLILKGDILMNQKKDILGAKKCFERILEMDPSNVQGKHNLCVVYFEEKDLLKAERCLLETLALAPHEEYIQRHLNIVRDKISSSSFIEPIFPTSKISSVEGKKIPTESVKEIRGESRQTQIVKTSDNKSQSKSNKQLGKNGDEETPHKTTKDIKEIEKKRVAALKRLEEIERILNGE [TMTC3] | -0.0354 | 52.9 | 53.1 | -0.0802 | 0.0389 | 0.555 |
| ZZEF1 | -0.243 | 51.8 | 51.5 | -0.0476 | 0.459 | 0.456 |
| MEFSSPSREECPKPLSRVSIMAGSLTGLLLLQAVSWASGARPCIPKSFGYSSVVCVCNATYCDSFDPPTFPALGTFSRYESTRSGRRMELSMGPIQANHTGTGLLLTLQPEQKFQKVKGFGGAMTDAAALNILALSPPAQNLLLKSYFSEEGIGYNIIRVPMASCDFSIRTYTYADTPDDFQLHNFSLPEEDTKLKIPLIHRALQLAQRPVSLLASPWTSPTWLKTNGAVNGKGSLKGQPGDIYHQTWARYFVKFLDAYAEHKLQFWAVTAENEPSAGLLSGYPFQCLGFTPEHQRDFIARDLGPTLANSTHHNVRLLMLDDQRLLLPHWAKVVLTDPEAAKYVHGIAVHWYLDFLAPAKATLGETHRLFPNTMLFASEACVGSKFWEQSVRLGSWDRGMQYSHSIITNLLYHVVGWTDWNLALNPEGGPNWVRNFVDSPIIVDITKDTFYKQPMFYHLGHFSKFIPEGSQRVGLVASQKNDLDAVALMHPDGSAVVVVLNRSSKDVPLTIKDPAVGFLETISPGYSIHTYLWRRQ [GBA] | 0.227 | 55.4 | 55.7 | -0.136 | -0.371 | 0.189 |
| MEADIITNLRCRLKEAEEERLKAAQYGLQLVESQNELQNQLDKCRNEMMTMTESYEQEKYTLQREVELKSRMLESLSCECEAIKQQQKMHLEKLEEQLSRSHGQEVNELKTKIEKLKVELDEARLSEKQLKHQVDHQKELLSCKSEELRVMSERVQESMSSEMLALQIELTEMESMKTTLKEEVNELQYRQEQLELLITNLMRQVDRLKEEKEEREKEAVSYYNALEKARVANQDLQVQLDQALQQALDPNSKGNSLFAEVEDRRAAMERQLISMKVKYQSLKKQNVFNREQMQRMKLQIATLLQMKGSQTEFEQQERLLAMLEQKNGEIKHLLGEIRNLEKFKNLYDSMESKPSVDSGTLEDNTYYTDLLQMKLDNLNKEIESTKGELSIQRMKALFESQRALDIERKLFANERCLQLSESENMKLRAKLDELKLKYEPEETVEVPVLKKRREVLPVDITTAKDACVNNSALGGEVYRLPPQKEETQSCPNSLEDNNLQLEKSVSIYTPVVSLSPHKNLPVDMQLKKEKKCVKLIGVPADAEALSERSGNTPNSPRLAAESKLQTEVKEGKETSSKLEKETCKKLHPILYVSSKSTPETQCPQQ [SPDL1] | 0.268 | 47.2 | 50.1 | 0.278 | 0.59 | 0.359 |
| MVAACRSVAGLLPRRRRCFPARAPLLRVALCLLCWTPAAVRAVPELGLWLETVNDKSGPLIFRKTMFNSTDIKLSVKSFHCSGPVKFTIVWHLKYHTCHNEHSNLEELFQKHKLSVDEDFCHYLKNDNCWTTKNENLDCNSDSQVFPSLNNKELINIRNVSNQERSMDVVARTQKDGFHIFIVSIKTENTDASWNLNVSLSMIGPHGYISASDWPLMIFYMVMCIVYILYGILWLTWSACYWKDILRIQFWIAAVIFLGMLEKAVFYSEYQNISNTGLSTQGLLIFAELISAIKRTLARLLVIIVSLGYGIVKPRLGTVMHRVIGLGLLYLIFAAVEGVMRVIGGSNHLAVVLDDIILAVIDSIFVWFIFISLAQTMKTLRLRKNTVKFSLYRHFKNTLIFAVLASIVFMGWTTKTFRIAKCQSDWMERWVDDAFWSFLFSLILIVIMFLWRPSANNQRYAFMPLIDDSDDEIEEFMVTSENLTEGIKLRASKSVSNGTAKPATSENFDEDLKWVEENIPSSFTDVALPVLVDSDEEIMTRSEMAEKMFSSEKIM [TMEM87B] | -0.12 | 55.1 | 54.9 | -0.177 | -3.16 | -3.29 |
